# Measured values: the supplement of paper PMC9170038
# Assays:
# MS2 coat protein [1] = experiment: apparent KD of MS2 coat protein, switch ON state; designed switch direction (-1 OFF switch, 1 ON switch): -1; higher = weaker reporter binding; conditions: FMN input: 0 or 200 uM; Eterna round: R93 (includes R88 designs)
# Procedure, shortened: (§1)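 Values are apparent KD, taken as the median for each design of fits to normalised binding curves from individual clusters. The designed RNA switches were transcribed on-chip from Illumina sequencing clusters and exposed to SNAP-549-labelled MS2 coat protein at twofold increasing amounts from 0.7 or 1.5 nM to 3 µM. Titration used 100 mM Tris-HCl pH 7.5, 80 mM KCl and 4 mM MgCl2, without or with constant ligand.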
# MS2 coat protein [2] = experiment: apparent KD of MS2 coat protein, switch OFF state (with FMN for OFF switches, without FMN for ON switches); designed switch direction (-1 OFF switch, 1 ON switch): -1; higher = weaker reporter binding; conditions: FMN input: 0 or 200 uM; Eterna round: R93 (includes R88 designs)
# Procedure, shortened: as §1
Sequence,apparent KD of MS2 coat protein (MS2 coat protein [1]) [nM],apparent KD of MS2 coat protein (MS2 coat protein [2]) [nM]
UAAAAGUGAGGAUAUUCGGAUAGGAAAACGAAAACCUAUCCGAAGAAGGCACAUGAGGAUCACCCAUGUAAAAU [Mat - Exaclusion 4 - Eli mod - D37],33.1,48
UGUUGGCGAGGAUAUACAUGAGGAUCACCCAUGUGAGAGAAAAAAGUGAGAAAGAAAAGUAGAAGGCGCUGACA [salish99-ex3-07],46.2,282
AAAAAAGGAGGAUAUACGUACAUGUCAAAAGACGUGAAGGGACAUGAGGAUCACCCAUGUAGAAGGCCUAAAAA [JL Part Open 33],45.2,78.3
AAAAAACAUGAGGAUCACCCAUGUGAGGAUAUGCUAAAAAAAAUAAAAAUAAAACAUAGCAGAAGGCACACCAA [Amethyst 57],28.2,38.4
AAAGAUACAGGAUAUACAUGAGGAUCACCCAUGUGAGACCAAAAAUGGGAAAAAGAAAGUAGAAGGGUAUAAAA [Ex 3 May 36],39.9,91.7
AACAGUACAGGAUAUACAUGAGGAUCACCCAUGUGACAAUUAAGUGGCGUACCACAGUGUAGAAGGGUACUGGA [Ruby 84],93.1,113
AAGGGACAUGAGGAUCACCCAUGUGAGGAUAUGCUAUGGAAAAUAAAAAAUAAACAUAGCAGAAGGCAUAAAAA [Mat - Exclusion 1 - Eli mod - D37],64.8,72.3
AGUAAACAUGAGGAUCACCCAUGUGAGGAUAUCGAAAAGAAAAGAAAAGAAAGAAGAAUGAGAAGGCACAAGAA [Huni],33.3,37
ACAAGCCUAGGAUAUACAUGAGGAUCACCCAUGUGAAAGAACCGGUGACUCCUGGAAAGUAGAAGGAGGAAUCG [Biatla],44.7,40.1
AAAAGCUUAGGAUAUACACAAAAUAAAGGAGUGAUAUCAGAACAUGAGGAUCACCCAUGUAGAAGGAAGAAAUA [Ceerle],65.3,58
"AAACCACAUGAGGAUCACCCAUGUCAGGAUAUGAACGAAAAUAAAUAAAAAUAAAAGUUCAGAAGGGACAAAAA [66%, Wbt, 13]",42.3,77.2
AAGAAUGCAGGAUAUACAAAAUAAAAGAAAAGAAAGAAAGAACAUGAGGAUCACCCAUGUAGAAGGGCAAAGAA [Menwadjre Sihathor],30,28.2
GGUUGGCGAGGAUAUACAUGAGGAUCACCCAUGUGAGAGAAAAAAGUGAGAAAGAAAAGUAGAAGGCGCUGACA [salish99-ex3-03],58.8,283
AAGACUACAGGAUAUACAUGAGGAUCACCCAUGUAACUGACGGAUAGAUGACGGAGAAGUAGAAGGGUAGUCCA [Ruby 39],36.9,46.9
CUCAAGUAAGGAUAUAGAAGAAAAGAAGAGAAAGAAAAGAACUAGAAGGUACAUGAGGAUCACCCAUGUAAGAA [EteRNA is fun!],41.6,21.5
AAAAAACAUGAGGAUCACCCAUGUGAGGAUAUGAAAAAACAAAAAAAAAAGUAAACAAUCAGAAGGCACAACAA [JR_Exc--1_Sub1211],27.3,24.4
UUAGAACAUGAGGAUCACCCAUGUGAGGAUAUGCAAUACUAAAAAAAAGAUAAUUAUAGCAGAAGGCACGUAGU [JR_EXc001_Sub805],35.1,41.4
CCCAUGUCAGGAUAUCAGUAGUAAAAAAAAAAAAUUACUACUGAGAAGGGACAUGAGGAUCACCCAUGUCCAAA [EX4 316: Super Stable 16],61.7,38.7

Sequence,apparent KD of MS2 coat protein (MS2 coat protein [1]) [nM],apparent KD of MS2 coat protein (MS2 coat protein [2]) [nM]
CUCUUGUCAGGAUAUGCAAGAAAAGAAAAGAAAGAAAAGAAGCAGAAGGGACAUGAGGAUCACCCAUGUAAGAA [EteRNA is fun!],76.7,77.7
AGUCGGCGAGGAUAUACAUGAGGAUCACCCAUGUGAGAGAAUAUAGUGAGUUAGACAAGUAGAAGGCGCUGACA [JL Lego Mod 11],43.2,135
"AGCUAGUCAGGAUAUACGAACAUGUCAGGAGACGUGAAGGGACAUGAGGAUCACCCAUGUAGAAGGGACUAGCG [74%, Web mod - With 3 more G's]",37.2,128
CUCAUGUCAGGAUAUGUAGCAUGAUACGAAAGUAUCAUGCUACAGAAGGGACAUGAGGAUCACCCAUGUGAUCA [Ex4: 941],31.7,25.5
AAAGGGUCAGGAUAUCGUUUAAUAAUAAAAUAAAUAAAGAACGAGAAGGGACAUGAGGAUCACCCAUGUAUAAA [May 76],65.3,89.8
AAAAAGGUAGGAUAUGCUAAAUAACAUGUUGAAUAAAUAAAACAUGAGGAUCACCCAUGUAGAAGGACCAAAAA [Ex 2 Tesla 2],54,58.1
AAGAACGAAGGAUAUACAUGAGGAUCACCCAUGUAAAAGAAAGAAGGGAAAGAGAAAAGUAGAAGGUCGAAGAA [Usermaatre Piye],22.2,24.4
AAAAAGUGAGGAUAUACGCGAACAAAAAUAAAAAAGAAAGCGUAGAAGGCACAUGAGGAUCACCCAUGUCCAAA [Alfred 64% 5],27.7,41.1
AAAACACAUGAGGAUCACCCAUGUGAGGAUAUGCUAUGGAAAAUAAAAAUAAAACAUAGCAGAAGGCGCAGGAA [Denovo 20],29.8,22.9
UUUAUGUGAGGAUAUGUACAGAAAAAAAAGGGUGUAACUGUACAGAAGGCACAUGAGGAUCACCCAUGUGAAUA [EX4 381: S S Pseudoknot 6],113,216
AAAAAGCGAGGAUAUACAUAGCUAAGACAAAUAAGCAAGGGACAUGAGGAUCACCCAUGUAGAAGGCGCAAAAA [Exclusion 2-01... 60% 1],34.7,97.3
AAAAAGGCAGGAUAUACAUGAGGAUCACCCAUGUGCAAAAAAAAAAAAAAAAAAACAUGUAGAAGGGCCGAAAA [Skynet (1?)],45.2,86.3
AACAGGUUAGGAUAUAUCCAACAAAUAAAAAAAAUAUAAGGAUAGAAGGAACAUGAGGAUCACCCAUGUUAACA [May 30],20.8,17.1
AAAAACUGAGGAUAUACAUGAGGAUCACCCAUGUGAAAGAAAGAAAAAAGAAAAGAAAGUAGAAGGCAGAAAAA [Ruby 76],34,29.5
UCCAGACAUGAGGAUCACCCAUGUCAGGAUAUCUAGAAAACCUCAUGUAAAAAAAACUAGAGAAGGGAUAUGGA [Design 95: Pseudoknot E],15.2,14.8
"AAAAAGUCAGGAUAUACGAAAGUGCGAAAGCACAAAAAGGGACAUGAGGAUCACCCAUGUAGAAGGGACAAGAA [Married to this design, 61% 3]",45.2,50.4
AAAAAACAUGAGGAUCACCCAUGUGAGGAUAUACAGAAUGGAAUAAAAUAACAAGAAAGUAGAAGGCACAAAAA [Ex 1 May 38],36.2,41.6
